Measurements from publication doi:10.1101/2020.07.09.174003 (bioRxiv, 2020).
Each block holds one molecule with its values, some of them ahead of it.

Tests used:
[1] = molecular target: Deinococcus radiodurans phytochrome (DrBphP) photosensory module, biliverdin-bound, with C-terminal AviTag and HisTag (Deinococcus radiodurans); assay: SEC
[2] = molecular target: Rhodopseudomonas palustris BphP1 (RpBphP1), mammalian two-hybrid fusion (Rhodopseudomonas palustris); assay: two-hybrid
[3] = molecular target: DrBphP photosensory module, biliverdin-bound, yeast two-hybrid bait (Deinococcus radiodurans (entry strain …, UniProt Q9RZA4, biliverdin-bound)); assay: two-hybrid
Chain of DrBphP photosensory module, biliverdin-bound, yeast two-hybrid bait (Deinococcus radiodurans (Q9RZA4 whole entry, looked up, tested part not stated): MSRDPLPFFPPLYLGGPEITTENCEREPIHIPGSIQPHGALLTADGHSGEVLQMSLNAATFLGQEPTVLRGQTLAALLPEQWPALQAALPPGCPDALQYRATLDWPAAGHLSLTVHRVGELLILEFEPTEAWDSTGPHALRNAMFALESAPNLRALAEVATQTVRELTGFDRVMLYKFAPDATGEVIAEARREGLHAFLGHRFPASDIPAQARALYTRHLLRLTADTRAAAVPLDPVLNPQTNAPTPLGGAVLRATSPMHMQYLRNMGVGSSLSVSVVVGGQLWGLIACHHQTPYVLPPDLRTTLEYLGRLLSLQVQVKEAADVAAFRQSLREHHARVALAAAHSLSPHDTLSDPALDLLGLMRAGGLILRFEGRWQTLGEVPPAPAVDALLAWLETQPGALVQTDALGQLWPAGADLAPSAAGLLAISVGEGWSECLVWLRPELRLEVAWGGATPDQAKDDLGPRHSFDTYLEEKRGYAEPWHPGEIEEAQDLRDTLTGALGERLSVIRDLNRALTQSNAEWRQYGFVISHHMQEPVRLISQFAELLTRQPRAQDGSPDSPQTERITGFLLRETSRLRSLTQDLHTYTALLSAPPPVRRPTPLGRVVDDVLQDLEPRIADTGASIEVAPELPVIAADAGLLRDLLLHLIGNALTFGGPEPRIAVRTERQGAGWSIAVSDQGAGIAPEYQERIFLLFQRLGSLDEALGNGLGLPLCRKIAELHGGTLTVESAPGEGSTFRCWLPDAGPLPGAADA

Molecule: Deinococcus radiodurans phytochrome (DrBphP) photosensory module, biliverdin-bound, with C-terminal AviTag and HisTag (domain or fragment)
stoichiometry N [1]: 2

Molecule: PpsR2, mammalian two-hybrid fusion (natural protein)
fold increase of luciferase expression, 775-nm light over dark [2]: 2.95 fold

Molecule: Q-PAS1, a truncated form of PpsR2, mammalian two-hybrid fusion (domain or fragment)
fold increase of luciferase expression, 775-nm light over dark [2]: 2.02 fold

binding result [3]: binds
B1: LDB-7 nanobody, yeast two-hybrid prey (VHH)
VHH: EVQLQASGGGFVQPGGSLRLSCAASGSTSDFESMGWFRQAPGKEREFVSAISSWFTNPPYYADSVKGRFTISRDNSKNTVYLQMNSLRAEDTATYYCAHRSIWYHPTYWGQGTQVTVSS

binding result [3]: binds
B2: LDB-4 nanobody, yeast two-hybrid prey (VHH)
VHH: EVQLQASGGGFVQPGGSLRLSCAASGDTSYLYSMGWFRQAPGKEREFVSAISWWWNLTQYYADSVKGRFTISRDNSKNTVYLQMNSLRAEDTATYYCAWSIYFPPGNDYNGYHYWGQGTQVTVSS

binding result [3]: binds
B3: LDB-6 nanobody, yeast two-hybrid prey (VHH)
VHH: EVQLQASGGGFVQPGGSLRLSCAASGFFSNWSDMGWFRQAPGKEREFVSAISFWADGTEYYADSVKGRFTISRDNSKNTVYLQMNSLRAEDTATYYCAWYGPVNGFYMFDYWGQGTQVTVSS
